How the values were obtained:
Assay type in all cases: cell-based
gene editing with dCas9 = assay: Screen of 322 new SSAP proteins, gene editing activity with dCas9 (Table 5); parameters: dCas9 with SSAP activity: scale not given here
Source text: (§1) 322 new SSAP proteins were identified from sequence data, synthesized, and screened for activity with Cas9 and dCas9. Gene editing activities are shown below in Table 5, followed by amino acid sequences of the proteins.

gene editing with Cas9 = assay: Screen of 322 new SSAP proteins, gene editing activity with Cas9 (Table 5); parameters: Cas9 with SSAP activity: scale not given here
Source text: as §1

[1] = system: gene editing with Cas9 and dCas9; assay: Screen of 322 new SSAP proteins, activity across all experiments (Cas9 and dCas9, Table 5); parameters: scale not given here
Source text: as §1

Molecule | dCas9 with SSAP activity (gene editing with dCas9) | dCas9 with SSAP activity (normalized) (gene editing with dCas9) | Cas9 with SSAP activity (gene editing with Cas9) | Cas9 with SSAP activity (normalized) (gene editing with Cas9) | Activity across all experiments [1]
LambdaBet (MSTALATLAGKLAERVGMDSVDPQELITTLRQTAFKGDASDAQFIALLI) | −2.737 | −0.416 | −4.490 | −0.856 | −3.613
SSAP_265: SEQ ID NO: 434; Clostridium coskatii (protein, listed as Clostridium coskatii) SDKKMVVLNESHTMLNKLLETKQEALPKDFNKARFLQNCMTVLQDTKGIEQCQPITVARTMLKGAFLGLDFFNKECYAIPYKDNLQFQTDYKGEIKLAKKYSFNPIKDIYAKIVRQGDDFQEAIINGQQTINFTPVPFNNGEIIGAFAVCLFQDGSMLYETMAKQEIENTRKNFSKAPNSPAWTKTPGEMYKKTVLRRLCKLIELDFDSVECKKVYNETSDFEFENQQHEVSNFDKKDIDEDKIVEADVEVQDDNENNVPEDGE | −3.182 | −0.478 | −0.932 | −0.510 | −2.057
SSAP_132: SEQ ID NO: 301; Enterocloster clostridioformis (protein, listed as Enterocloster clostridioformis) GIDVKHELEKRAAGQDKPVKLTRNMTIADMVKALEPEIKRALPAILTPERFTRMALSAVNNTPELANCTPMSFIAALMNAAQLGLEPNTPLGQAYLIPYKNKGTLECQFQLGYKGLIDLAYRTGQIQIIQAQAVREFDYFEYQYGLDSRLVHKPGNEERGQITFIYGLFKLSNGGYGFEVSNKAEMDAFAAKYSKSFGSKYSPWTEDYESMAKKTVIKRALKYAPVSSDFQKALSLDETVKSEIAVDMSEIRNDCIPADMGTEAA | −3.318 | −0.536 | −7.323 | −1.345 | −5.320
SSAP_315: SEQ ID NO: 484; Pseudoalteromonas spongiae (protein, listed as Pseudoalteromonas spongiae) NKFQHLQTELSSQLLSTKERFNELNNKNNLKVNFEEEYNFFYHLVTSSFYNINGIATCTFSSLKEAFLNIAKYGLSINPKLNLCYIRTEQSCAQANVNIAVYDFGYKGLLKLITRTGKVKIVTADVFYENDNFEFRGTREPVKHSTKTLSAAARGAMAGGYCSSELVAGGVVTTIMTPEELREIESICQSTGNEAWNSVFIDELRRKTLIKRHWKTLMQVIEEQNLSVPIEETYQCDFANGGY | −3.063 | −2.608 | −1.578 | −0.629 | −2.321
SSAP_273: SEQ ID NO: 442; Virgibacillus (multispecies) (protein, listed as Virgibacillus sp.) ATNDSVKNQIANKNQGSNQVNPNNLGLKQLLSTPTMRKKFDEVLDKKAPQFMSSLLNLYSNDSYLQKAEPMSVVTSALVAATLDLPIDKNLGYAWIVPYGGKAQFQLGYKGYIQLALRTGQYRNINVIEVYEGELKSFNRLTEEMELDFEQKQSDKVIGYTGYFELINGFRKTVYWSKEEIEKHKKRFSKSDFGWKKDWDAMAKKTVIRNMLNKWGILSIDMQKGIVEDNKDPIEKANEFDEQDIIEADFSEVNDDQEIDFSDAQ | 1.896 | 2.101 | −1.654 | −0.724 | 0.121
SSAP_105: SEQ ID NO: 274; unclassified Lysinibacillus (protein, listed as Lysinibacillus sp.) ATTTDLKAQMQQAPATQQKPKTIDDYLKQMAPAMAQALPKHMDVDRLMRLAMTTIRTTPALKDADVSSLLGAVMQAAQLGLEPGLMGHCYLLPFKNNKKGITEVQFIIGYKGMIDLARRSGHIQSIYAHAVYQKDEFEYELGLDPKLKHKPCMDEDKGNFVGAYAVAHFKDGGYQFEFMSKAEIEKRKGRSKAANSTYSPWATDYEEMAKKTVVRHMWKYLPISVEMQQQVAYDEGTAPKREMKDITPETEFFVDAPEIEVEVVNE | −2.961 | −0.450 | −0.802 | −0.382 | −1.882
SSAP_249: SEQ ID NO: 418; environmental Halophage eHP-30 (protein, environmental Halophage eHP-30) TEQNQTPAKTESKSPIKAQLYKDNVQQRFQELLGERASAFMTSVMSVVKDNDQLSQAEPSSVLNAAMTAATLDMPIDNNLGMAYIVPYKDGKSGKTYAQFQLGYKGFIQLAQRSGQFKTISATPVRQGQIVTADPLRGYEFDFTQGQDKEVVGYAAYFALLNGFEKTLYMSKAEMEQHAASYAAGYKKGYSNWNRKFDEMALKTVIKQLLSKYAPLSVDMQKAQQTDQTVSVEEPNAIEQQEAAPEIDASSNNNQNQ | −3.279 | −0.575 | −3.033 | −0.543 | −3.156
SSAP_51: SEQ ID NO: 220 (protein) AENEKQALLQEENKSENVVSTVKRTALATNPFSDTDQFNNIFKMAQLISQSDMIPATYKGKPMNCVIALEQANRMGVSPLMVMQNLYVVKGVPSWSGQGCMMIIQGCGKFRDVDYVYSGEKGTDSRSCKVVATRISDGKRIEGTEITMQMVKSEGWISNTKWKNMPEQMLGYRAATFFARMYCPNELNGFATEGEAEDMNHKPQRIEAINVLGDTAHE | −2.900 | −0.907 | −0.124 | −0.406 | −1.512
SSAP_113: SEQ ID NO: 282; Acinetobacter sp. RIT592 (protein, listed as Acinetobacter sp.) ADLKNKLANKAAGTVTKTSPNAGMKQLMKSMSKEIEAALPSHMSSERFQRVALTAFGNNPKLMNCDPMSFIAAMMDSAQLGLEPNTPLGQAYLIPYGTKVQFQVGYKGLLELALRSGKIKTLYAHEVRENDTFEVKYGLHQDLIHEPVLKGNRGEVIGYYAVYHLDTGGHSFVFMTKDEVLEHAKGKSKTFNNGPWQTDFDAMAKKTVIKQLLKYAPLSIEMQKAVSSDETVKSKIDEDMSLVVDESDSIEANFEIKEDEDGQLDVYVK | −3.134 | −3.818 | −3.728 | −3.241 | −3.431
SSAP_163: SEQ ID NO: 332; Clostridium sp. Marseille-P3244 (protein, listed as Clostridium sp.) AARATNSVKEELAKKAETKAVGEKKLTRSMSIADLIKAMAPEIKKALPEVITPERFTRMALSALNTTPKLQECTQMSFLAALMNAAQLGLEPNTPLGQAYLIPFNNKGTMECQFQIGYKGLIDLGYRNPQMQIISAQAVYENDEFEYELGLNPKLEHRPALHDRGELRLFYGLFKLVNGGFGFEVMSKEAVDAYAKEYSKSFDSSFSPWKTNYEAMAKKTVIKQALKYAPIKADFRKALSTDETIKNEIAEDMSEIHGEDIFDAEYTEQTA | −2.847 | −0.374 | 1.362 | 1.914 | −0.742
SSAP_234: SEQ ID NO: 403; Cellulosilyticum lentocellum (protein, listed as Cellulosilyticum lentocellum) SDKKELVLKETHSRLNQLLATKMEAMPKDFNQTRFLQNCMTVLQDTKGIENCHPVSIARTLLKGAFLGLDFFQRECYAIPYGGELQFQTDYKGETKMAKKYSIRDIKDIYAKVVRKGDEFKEEIVAGQQVVDFKPLPFNDAEIIGAFAVVLYQDGGMEYETMSTKQIEGIRDNFSKMKNGLMWTKTPEEAYKKTVLRRLTKKIEKDFASIDQAKAYEESSDMQFKQDEQKQDAKDPFADAVDVEFTEETEGQVRLDGEADGAK | −2.950 | −0.446 | 0.596 | 1.140 | −1.177
SSAP_320: SEQ ID NO: 489; Pseudoalteromonas sp. MQS005 (protein, listed as Pseudoalteromonas sp.) SISQQDYENLLYSKLYECESQYQAYLAEHNEKLNFNAELNYMYKAVMSGVGIEGGFPYTPLESIVESFLKAAKLGLSLDPSEQFCFLRSQYDHSTGLYHTELGLGYKGVLHLAYRSGKVKQIVSNVFYNKDNFQFNGPNSKVTHTMTVLSTSARGNLAGGYCQTELVDGSFIVTVMPPEEILAIEEQGKSVGNPAWLSAHVNQMREKTLILRHWKTLYPAIYSSSLLDSAQIFDDECEEFPFSSPSQGFSESQTIGSY | −3.288 | −0.449 | −1.322 | −0.932 | −2.305

Source: patent US20250034594A1, “RNA-GUIDED GENOME RECOMBINEERING AT KILOBASE SCALE” (THE BOARD OF TRUSTEES OF THE LELAND STANFORD JUNIOR …, priority 2021, published 2025)
